Data from paper PMC10397247.
Each block holds one binder with its values, some of them ahead of it.

Experiments:
[1] = molecular target: T1, 4H591-bH; assay: two-hybrid library CCNG1;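 also: natural log of median RNA to DNA barcode read ratio; higher means stronger binding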
T1 chain: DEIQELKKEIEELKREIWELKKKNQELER

[2] = molecular target: T2, 4H626-bH; assay: two-hybrid library CCNG1;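 also: natural log of median RNA to DNA barcode read ratio; higher means stronger binding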
T2 chain: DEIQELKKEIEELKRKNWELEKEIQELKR

[3] = molecular target: T3, 4H906-bH; assay: two-hybrid library CCNG1;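 also: natural log of median RNA to DNA barcode read ratio; higher means stronger binding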
T3 chain: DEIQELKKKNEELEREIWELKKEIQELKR

[4] = molecular target: T4, 4H2389-AA; assay: two-hybrid library CCmax;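 also: natural log of median RNA to DNA barcode read ratio; higher means stronger binding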
T4 chain: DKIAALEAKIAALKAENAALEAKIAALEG

[5] = molecular target: T5, 4H2438-AA; assay: two-hybrid library CCmax; settings: mean of both orientations;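 also: natural log of median RNA to DNA barcode read ratio; higher means stronger binding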
T5 chain: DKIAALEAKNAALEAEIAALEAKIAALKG

[6] = molecular target: T6, 4H2473-AA; assay: two-hybrid library CCmax; settings: mean of both orientations;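 also: natural log of median RNA to DNA barcode read ratio; higher means stronger binding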
T6 chain: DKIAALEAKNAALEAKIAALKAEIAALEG

[7] = molecular target: T7, 4H2649-AA; assay: two-hybrid library CCmax; settings: mean of both orientations
T7 chain: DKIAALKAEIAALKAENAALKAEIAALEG

[8] = molecular target: T8, 4H2698-AA; assay: two-hybrid library CCmax; settings: mean of both orientations
T8 chain: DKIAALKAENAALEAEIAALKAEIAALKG

[9] = molecular target: T9, 4H2725-AA; assay: two-hybrid library CCmax; settings: mean of both orientations
T9 chain: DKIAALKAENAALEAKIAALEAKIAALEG

[10] = molecular target: T10, 4H2865-AA; assay: two-hybrid library CCmax; settings: mean of both orientations
T10 chain: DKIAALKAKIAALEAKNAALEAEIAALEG

[11] = molecular target: T11, 4H3009-AA; assay: two-hybrid library CCmax; settings: mean of both orientations
T11 chain: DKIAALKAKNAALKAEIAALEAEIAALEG

[12] = molecular target: T12, 4H3016-AA; assay: two-hybrid library CCmax; settings: mean of both orientations
T12 chain: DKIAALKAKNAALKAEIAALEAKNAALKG

[13] = molecular target: T13, 4H310-AA; assay: two-hybrid library CCmax; settings: mean of both orientations
T13 chain: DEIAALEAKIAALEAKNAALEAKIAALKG

[14] = molecular target: T14, 4H3120-AA; assay: two-hybrid library CCmax; settings: mean of both orientations
T14 chain: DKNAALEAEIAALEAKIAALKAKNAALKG

[15] = molecular target: T15, 4H3130-AA; assay: two-hybrid library CCmax; settings: mean of both orientations
T15 chain: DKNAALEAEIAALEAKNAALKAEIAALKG

[16] = molecular target: T16, 4H3165-AA; assay: two-hybrid library CCmax; settings: mean of both orientations
T16 chain: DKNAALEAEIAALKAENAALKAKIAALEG

[17] = molecular target: T17, 4H3381-AA; assay: two-hybrid library CCmax; settings: mean of both orientations
T17 chain: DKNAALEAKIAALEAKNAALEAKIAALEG

[18] = molecular target: T18, 4H3395-AA; assay: two-hybrid library CCmax; settings: mean of both orientations
T18 chain: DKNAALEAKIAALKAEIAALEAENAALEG

[19] = molecular target: T19, 4H3410-AA; assay: two-hybrid library CCmax; settings: mean of both orientations
T19 chain: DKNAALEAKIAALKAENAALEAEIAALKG

[20] = molecular target: T20, 4H3590-AA; assay: two-hybrid library CCmax; settings: mean of both orientations
T20 chain: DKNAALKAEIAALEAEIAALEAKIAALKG

[21] = molecular target: T21, 4H3697-AA; assay: two-hybrid library CCmax; settings: mean of both orientations
T21 chain: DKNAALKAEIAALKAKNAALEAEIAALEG

[22] = molecular target: T22, 4H3753-AA; assay: two-hybrid library CCmax; settings: mean of both orientations
T22 chain: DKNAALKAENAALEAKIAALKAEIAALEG

[23] = molecular target: T23, 4H3865-AA; assay: two-hybrid library CCmax; settings: mean of both orientations
T23 chain: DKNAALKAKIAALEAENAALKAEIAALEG

[24] = molecular target: T24, 4H458-AA; assay: two-hybrid library CCmax; settings: mean of both orientations
T24 chain: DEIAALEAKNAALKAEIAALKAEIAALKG

[25] = molecular target: T25, 4H485-AA; assay: two-hybrid library CCmax
T25 chain: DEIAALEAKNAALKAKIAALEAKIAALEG

[26] = molecular target: T26, 4H536-AA; assay: two-hybrid library CCmax; settings: mean of both orientations
T26 chain: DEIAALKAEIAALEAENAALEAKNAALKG

[27] = molecular target: T27, 4H570-AA; assay: two-hybrid library CCmax; settings: mean of both orientations
T27 chain: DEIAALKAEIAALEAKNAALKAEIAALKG

[28] = molecular target: T28, 4H629-AA; assay: two-hybrid library CCmax; settings: mean of both orientations
T28 chain: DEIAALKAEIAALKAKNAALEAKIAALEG

[29] = molecular target: T29, 4H710-AA; assay: two-hybrid library CCmax; settings: mean of both orientations
T29 chain: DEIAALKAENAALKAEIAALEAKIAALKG

[30] = molecular target: T30, 4H745-AA; assay: two-hybrid library CCmax; settings: mean of both orientations
T30 chain: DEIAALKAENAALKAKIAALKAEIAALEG

[31] = molecular target: T31, 4H797-AA; assay: two-hybrid library CCmax; settings: mean of both orientations
T31 chain: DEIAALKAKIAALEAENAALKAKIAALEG

[32] = molecular target: T32, 4H850-AA; assay: two-hybrid library CCmax; settings: mean of both orientations
T32 chain: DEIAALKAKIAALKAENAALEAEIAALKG

[33] = molecular target: T33, 4H891-AA; assay: two-hybrid library CCmax; settings: mean of both orientations
T33 chain: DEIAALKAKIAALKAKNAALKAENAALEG

[34] = molecular target: T34, 4H909-AA; assay: two-hybrid library CCmax; settings: mean of both orientations
T34 chain: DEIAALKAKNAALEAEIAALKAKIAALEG

[35] = molecular target: T35, 4H930-AA; assay: two-hybrid library CCmax; settings: mean of both orientations
T35 chain: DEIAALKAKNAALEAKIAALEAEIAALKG

[36] = molecular target: T36, 4H94-AA; assay: two-hybrid library CCmax; settings: mean of both orientations
T36 chain: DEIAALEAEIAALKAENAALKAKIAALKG

[37] = molecular target: T37, 4H3297-bN; assay: two-hybrid library CCNG1
T37 chain: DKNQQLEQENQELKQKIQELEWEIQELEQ

[38] = molecular target: T38, 4H3364-bN; assay: two-hybrid library CCNG1
T38 chain: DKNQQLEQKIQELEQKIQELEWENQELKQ

[39] = molecular target: T39, 4H3381-bN; assay: two-hybrid library CCNG1
T39 chain: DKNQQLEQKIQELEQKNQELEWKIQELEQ

[40] = molecular target: T40, 4H349-bN; assay: two-hybrid library CCNG1
T40 chain: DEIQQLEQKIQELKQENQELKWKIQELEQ

[41] = molecular target: T41, 4H56-bN; assay: two-hybrid library CCNG1
T41 chain: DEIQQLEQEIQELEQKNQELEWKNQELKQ

[42] = molecular target: T42, 4H730-bN; assay: two-hybrid library CCNG1
T42 chain: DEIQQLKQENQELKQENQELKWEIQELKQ

[43] = molecular target: T43, 4H796-bN; assay: two-hybrid library CCNG1
T43 chain: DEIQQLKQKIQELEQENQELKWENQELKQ

[44] = molecular target: T44, 4H932-bN; assay: two-hybrid library CCNG1
T44 chain: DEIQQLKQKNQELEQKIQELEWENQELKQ

[45] = molecular target: T45, 4H949-bN; assay: two-hybrid library CCNG1
T45 chain: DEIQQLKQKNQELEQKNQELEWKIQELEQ

[46] = molecular target: T46, 4H953-AA; assay: two-hybrid library CCmax
T46 chain: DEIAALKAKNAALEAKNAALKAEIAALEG

[47] = molecular target: T47, 4H967-AA; assay: two-hybrid library CCmax; settings: mean of both orientations
T47 chain: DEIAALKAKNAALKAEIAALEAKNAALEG

Binder: DEIQELKKEIEELKREIWELKKKNQELER [4H591-bH]
interaction score [1]: 1.58
interaction score [2]: -0.53
interaction score [3]: -0.784

Binder: DEIAALKAKNAALEAKNAALKAEIAALEG [4H953-AA]
interaction score [46]: -1.02
interaction score [47]: -1.73

Now from value to binder:

interaction score [4]: 2.02
interaction score [5]: -0.27
interaction score [6]: -1.3
interaction score [7]: 1.07
interaction score [8]: -0.843
interaction score [9]: -0.942
interaction score [10]: 1.02
interaction score [11]: 1.53
interaction score [12]: 0.227
interaction score [13]: 1.8
interaction score [14]: -0.79
interaction score [15]: 1.81
interaction score [16]: 0.858
interaction score [17]: -0.842
interaction score [18]: -1.54
interaction score [19]: -1.2
interaction score [20]: -0.0915
interaction score [21]: -1.74
interaction score [22]: -1.26
interaction score [23]: -0.601
interaction score [24]: -0.364
interaction score [25]: 0.153
interaction score [26]: -0.282
interaction score [27]: 1.65
interaction score [28]: -0.106
interaction score [29]: 0.392
interaction score [30]: -1.25
interaction score [31]: 1.3
interaction score [32]: -0.804
interaction score [33]: -0.959
interaction score [34]: -1.35
interaction score [35]: -0.305
interaction score [36]: 1.99
Binder: DKIAALEAKIAALKAENAALEAKIAALEG [4H2389-AA]

interaction score [37]: -0.0469
interaction score [38]: -0.913
interaction score [39]: -1.01
interaction score [40]: -2.11
interaction score [41]: -0.798
interaction score [42]: -0.799
interaction score [43]: -0.556
interaction score [44]: -1.21
interaction score [45]: -1.29
Binder: DKNQQLEQENQELKQKIQELEWEIQELEQ [4H3297-bN]
